From paper PMC6642096 (Nature Communications, 2019)

Target: T1, LgB-NIX (UniProt O60238 1-219)
T1 construct: also called NIX (NanoBiT Large BiT fusion); not shown: Large BiT (LgB), N-terminal, kept
Experiment: split reporter (BiFC, NanoBiT)
Conditions: partners not purified

T1 sequence (O60238 whole entry, the tested form may be a part): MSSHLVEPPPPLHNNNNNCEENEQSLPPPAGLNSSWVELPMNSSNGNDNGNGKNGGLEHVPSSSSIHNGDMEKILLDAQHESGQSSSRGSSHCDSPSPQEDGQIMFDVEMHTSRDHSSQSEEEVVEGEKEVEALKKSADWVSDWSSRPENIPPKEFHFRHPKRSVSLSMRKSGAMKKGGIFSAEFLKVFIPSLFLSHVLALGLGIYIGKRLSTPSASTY

B1: vIRF-1-SmB (natural protein)
chain: MDPGQRPNPFGAPGAIPKKPCLSQGSPGTSGSGAPCDEPSRSESPGEGPSGTGGSAAAGDITRQAVVAAITEWSRTRQLRISTGASEGKASIKDWIVCQVNSGKFPGVEWEDEERTRFRIPVTPLADPCFEWRRDGELGVVYIRERGNMPVDASFKGTRGRRRMLAALRRTRGLQEIGKGISQDGHHFLVFRVRKPEEEQCVECGVVAGAVHDFNNMARLLQEGFFSPGQCLPGEIVTPVPSCTTAEGQEAVIDWGRLFIRMYYNGEQVHELLTTSQSGCRISSALRRDPAVHYCAVGSPGQVWLPNVPNLACEIAKRELCDTLDACAKGILLTSSCNGIFCVCYHNGPVHFIGNTVPPDSGPLLLPQGKPTRIFNPNTFLVGLANSPLPAPSHVTCPLVKLWLGKPVAVGKLEPHAPSPRDFAARCSNFSDACVVLEIMPKPLWDAMQ
notes: also called vIRF-1-SmB (NanoBiT Small BiT fusion); source: 293T, transiently transfected, in cells; not shown: Small BiT (SmB), C-terminal, kept
With B1 the “fold luminescence against HT-SmB with LgB-NIX” value was 10 fold.
